Series [1] relates to 2G12 (anti-HIV gp120 broadly neutralizing antibody). As to the kind of experiment: pulldown. The conditions noted are these: 2'-F pyrimidines, qPCR bead assay as glyco-RNA/DNA hybrid.
Series [2] shares this test system. As to the kind of experiment: FP filter. The following applies: 2'-F pyrimidines; every U is 2'-F-5-ethynyl-U clicked to Man9-cyclohexyl azide (4 glycans); nitrocellulose filter binding, 32P RNA not gel purified; 20 mM Tris pH 7.5, 150 mM NaCl, 2 mM MgSO4; Fbmax 7.0%.
For series [3] the test system is unchanged. As to the kind of experiment: filter. The conditions noted are these: 2'-F pyrimidines, every U is 2'-F-5-ethynyl-U clicked to Man9-cyclohexyl azide (3 glycans).

Kd data for 4 sequences are collected here from patent US20250281598.

“GGAGAGAAGGAGGGAAGAGAGAAAAAAAACAGAGGGAACCCAGGUGAUUGGGGCAAGCGACACAAAGCCCGG [15F3-M1]”: in series [1] (every U is 2'-F-5-ethynyl-U clicked to Man9-cyclohexyl azide (3 glycans), Fbmax 1.1%), the Kd (commonly the concentration at which binding is half-saturated) turned out to be 31 nM. On to “GGAGAGAAGGAGGGAAGAGAGAAAAAAAACAUAGGGAACCCAGGUGAUUGGGGCAAGCGACACAAAGCCCGG [15F3]”, for which the Kd in series [1] (every U is 2'-F-5-ethynyl-U clicked to Man9-cyclohexyl azide (4 glycans), room temperature, Fbmax 3.8%) is 19 nM; in series [2], 13 nM. Sequence “GGAGAGAAGGAGGGAAGAGAGAAAAAAAAAAGCGCCCAGGUGAUUGGGCGCAAGCGACACAAAGCCCGG [15F3-M1-Mod]” had a dissociation constant Kd in series [3] (gel purified and refolded, Fbmax 51%) of 36 nM. For the sequence “GGAGAGAAGGAGGGAAGAGAGAAAAAAUCGACGGAACAGGGGCCCCCUGUGGAAAGCGACACAAAGCCCGG [15F1]”, the equilibrium dissociation constant (Kd) in series [3] (20 mM Tris pH 7.5, 150 mM NaCl, 2 mM MgSO4, not gel purified, Fbmax 23%) came out at 40 nM; in series [1] (every U is 2'-F-5-ethynyl-U clicked to Man9-cyclohexyl azide (3 glycans), room temperature, Fbmax 7.9%), 40 nM.
